Experimental data as given in the supplement of paper PMC12764529.
± gives the half width of the 95% confidence interval.

What was measured:
[1] = folding stability dG unfold (combined trypsin and chymotrypsin); higher = more stable
Summary of the method: (§1)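 Bayesian fitting of sequencing counts gave K50 for each design. Unfolding free energy followed by setting this against a sequence-predicted unfolded-state K50 and a shared folded-state K50, either per protease or with trypsin and chymotrypsin combined. The designs, under 80 residues and lacking cysteine, were digested in a PA-tagged cDNA display format at 11 threefold-diluted protease concentrations and without protease, and only those with AlphaFold2 dimer inter-PAE above 15 were kept.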

[2] = folding stability dG unfold from chymotrypsin proteolysis; higher = more stable
Summary of the method: as §1

[3] = folding stability dG unfold from trypsin proteolysis; higher = more stable
Summary of the method: as §1

In the case of “SAKLPEGAVVVIEDIEEKEVNGKKYKTIKISVYDKKNKGKLIAETEIVVENGKIVEKKVKVKKVSKEELSAG [r14_651_TrROS_Hall]”, the “folding stability dG unfold” value [1] is reported as 1.61 ± 0.14 kcal/mol, the “folding stability dG unfold” value [2] is reported as 2.05 ± 0.14 kcal/mol and the “folding stability dG unfold” value [3] is reported as 0.887 ± 0.027 kcal/mol.
With “SAGGSAGGMKIIKYDKKTKKVLIYYDEETKEWYVRNKNGKIYKFKSVEEALKKLPVKVEIVKVPSAGGSAGG [r6_752_TrROS_Hall]” the “folding stability dG unfold” value [1] was 1.67 ± 0.089 kcal/mol, the “folding stability dG unfold” value [2] was 1.6 ± 0.14 kcal/mol and the “folding stability dG unfold” value [3] was 1.5 ± 0.035 kcal/mol.
With “SAGGMMKLNPKTLETKTTTVPLPDGSTVTLTTKLVELKFPNGEVELVTLTVETFPSEPTLTVLEEKPLSAGG [r19_158_JUSTAS]” the “folding stability dG unfold” value [1] was 0.341 ± 0.11 kcal/mol, the “folding stability dG unfold” value [2] was 0.45 ± 0.1 kcal/mol and the “folding stability dG unfold” value [3] was -0.0226 ± 0.083 kcal/mol.
In the case of “SAGGSAGGEIVITLPNVKSKEEAKKAAEKLIEELKKKGIKDKTIKVTVIDEKTGKEYTFTIKLKSAGGSAGG [r6_237_TrROS_Hall]”, the “folding stability dG unfold” value [1] is reported as 4.14 ± 0.3 kcal/mol, the “folding stability dG unfold” value [2] is reported as 4.38 ± 0.16 kcal/mol and the “folding stability dG unfold” value [3] is reported as 3.81 ± 0.15 kcal/mol.
In the case of “SAGGSAGGSAGGPRTLTLTVTLTRTYYDEETGEEVETETETLTLTLRLEPPPPLSPEQLSAGGSAGGSAGGS [r10_50_TrROS_Hall]”, the “folding stability dG unfold” value [1] is reported as 2.99 ± 0.17 kcal/mol, the “folding stability dG unfold” value [2] is reported as 3.19 ± 0.07 kcal/mol and the “folding stability dG unfold” value [3] is reported as 2.69 ± 0.061 kcal/mol.
With “SAGGKFKIVKIEVEEKTVKVKNKDGKIEKKKVKVIKVKIYKDGKLIKEVTFKSKEDMLNALKELLKKSAGGS [r8_21_TrROS_Hall]” the “folding stability dG unfold” value [1] was 4.35 ± 0.3 kcal/mol, the “folding stability dG unfold” value [2] was 4.53 ± 0.23 kcal/mol and the “folding stability dG unfold” value [3] was 3.06 ± 0.11 kcal/mol.
With “SAGGSAGGSYKIDKIEVQPPPGGYYQATIEVEQVDPENGNPQRQEQEIPVPANDPKQIKDFLKSAGGSAGGS [r12_691_TrROS]” the “folding stability dG unfold” value [1] was 0.174 ± 0.22 kcal/mol, the “folding stability dG unfold” value [2] was 0.379 ± 0.16 kcal/mol and the “folding stability dG unfold” value [3] was -0.523 ± 0.19 kcal/mol.
For “SAGGSAPPNLQIDIQINPGHGYIEVSVQIPGRHVKASAKLTEPGQLKMDIEFPGNGKEIDITIPISSAGGSA [r15_837_TrROS]”, the “folding stability dG unfold” value [1] was 2.37 ± 0.15 kcal/mol, the “folding stability dG unfold” value [2] was 2.61 ± 0.072 kcal/mol and the “folding stability dG unfold” value [3] was 2.04 ± 0.14 kcal/mol.
For “SKMYLVKIKIEVYKDGKLVKEEEIEIEVSEEEAKKLAEKLKEELPGYKVKIEIEVREIEPEDEELLKALESA [r9_782_TrROS_Hall]”, the “folding stability dG unfold” value [1] was 3.61 ± 0.12 kcal/mol, the “folding stability dG unfold” value [2] was 4.12 ± 0.054 kcal/mol and the “folding stability dG unfold” value [3] was 2.69 ± 0.15 kcal/mol.
In the case of “SAMKKPPKTLTLVIVVKVPEEEMTEEQLEELARELAEALAPPGEKVEVKVEVERLPDGTVVVKIEIKLESAG [r14_389_TrROS_Hall]”, the “folding stability dG unfold” value [1] is reported as 2.22 ± 0.17 kcal/mol, the “folding stability dG unfold” value [2] is reported as 1.98 ± 0.067 kcal/mol and the “folding stability dG unfold” value [3] is reported as 2.28 ± 0.091 kcal/mol.
With “SAGGMTIEKEDGKYRITITINGKTYTFTIPKELENKTEEEIAAELAAELAEKFGLKEITEIKIEKVPSAGGS [r8_402_TrROS_Hall]” the “folding stability dG unfold” value [1] was 3.14 ± 0.1 kcal/mol, the “folding stability dG unfold” value [2] was 3.559 ± 0.025 kcal/mol and the “folding stability dG unfold” value [3] was 2.38 ± 0.096 kcal/mol.
With “SANGEMTMMFEFEIFFPGLGYRGKIYVMMRIEPTPNQIRIDLMIMIEIEPIPPPPPKVPPEQNPEDADDSAG [r14_435_TrROS]” the “folding stability dG unfold” value [1] was 5.23 ± 0.48 kcal/mol, the “folding stability dG unfold” value [2] was 5.18 ± 0.2 kcal/mol and the “folding stability dG unfold” value [3] was 3.82 ± 0.21 kcal/mol.
In the case of “SAGGEKDLYLVKYRVEIKNDKGEKKEFPVTAIATSLEELEETLKALTPKNAEAKVEILEVKPLKEVLSSAGG [r13_513_TrMRF]”, the “folding stability dG unfold” value [1] is reported as 1.72 ± 0.1 kcal/mol, the “folding stability dG unfold” value [2] is reported as 1.55 ± 0.038 kcal/mol and the “folding stability dG unfold” value [3] is reported as 1.86 ± 0.091 kcal/mol.
With “SAGGSAGGSAMYKVTIEIPETGKIYTFTHPGTAEEALAAALPEIGVSKEKIKKITVTPTEESAGGSAGGSAG [r3_79_JUSTAS]” the “folding stability dG unfold” value [1] was 0.994 ± 0.11 kcal/mol, the “folding stability dG unfold” value [2] was 1.36 ± 0.11 kcal/mol and the “folding stability dG unfold” value [3] was 0.312 ± 0.079 kcal/mol.
In the case of “SASKRFVFPVLGDEQTITVDVPEDYYVRITVFFPDGSEPILIPPNEKVTITVPRKDAFVVIEVFPKNEESAG [r14_882_TrMRF]”, the “folding stability dG unfold” value [1] is reported as 2.48 ± 0.067 kcal/mol, the “folding stability dG unfold” value [2] is reported as 2.35 ± 0.025 kcal/mol and the “folding stability dG unfold” value [3] is reported as 2.59 ± 0.077 kcal/mol.
For “SAGGPKLFVEEDPVEDGVVVVVETNADPVALLKALEKLFGRPVKDVRFERLPDGRLIAVARIPKDALSAGGS [r16_605_TrMRF]”, the “folding stability dG unfold” value [1] was 2.47 ± 0.045 kcal/mol, the “folding stability dG unfold” value [2] was 2.676 ± 0.016 kcal/mol and the “folding stability dG unfold” value [3] was 2.05 ± 0.043 kcal/mol.
For “SAGEKIKEALKKAGVEKVEIVEIKRLKNGKVLIVIRLHPDMSEEQRRRLLKALADALREEFPDVKIVELSAG [r5_101_TrROS_Hall]”, the “folding stability dG unfold” value [1] was 4.5 ± 0.052 kcal/mol, the “folding stability dG unfold” value [2] was 4.33 ± 0.051 kcal/mol and the “folding stability dG unfold” value [3] was 4.79 ± 0.13 kcal/mol.
For “SAGGSAGGMYTVIEEEFTFPPSNPDVVIEVEYPDLPDSYTITQSTFPEGDTYHVRVTITVPPNLSAGGSAGG [r6_482_JUSTAS]”, the “folding stability dG unfold” value [1] was 0.605 ± 0.076 kcal/mol, the “folding stability dG unfold” value [2] was 0.762 ± 0.1 kcal/mol and the “folding stability dG unfold” value [3] was 0.314 ± 0.089 kcal/mol.
In the case of “SAGGSAGGSAGGGMRFTVEVEPGKVSYSPGIVNKNTPGSSVSEIITVTVVETNPEKLLLSAGGSAGGSAGGS [r10_654_JUSTAS]”, the “folding stability dG unfold” value [1] is reported as 0.211 ± 0.19 kcal/mol, the “folding stability dG unfold” value [2] is reported as 0.638 ± 0.093 kcal/mol and the “folding stability dG unfold” value [3] is reported as -0.499 ± 0.29 kcal/mol.
With “SAGGSPETKTISFKYPGNGMRIMVQVERDPADGKKKITINMENNPYMAERAKKALEELGLPVEIHPSAGGSA [r2_30_TrROS]” the “folding stability dG unfold” value [1] was 1.32 ± 0.12 kcal/mol, the “folding stability dG unfold” value [2] was 1.14 ± 0.12 kcal/mol and the “folding stability dG unfold” value [3] was 1.38 ± 0.13 kcal/mol.
With “SAGKIKKIEVKEVTNENGEKYKKITIEVEKEGKKVEIIVNKNGEKFIKVEKNGKTITLPLDEALELLKKSAG [r5_157_TrROS_Hall]” the “folding stability dG unfold” value [1] was 1.23 ± 0.3 kcal/mol, the “folding stability dG unfold” value [2] was 1.19 ± 0.13 kcal/mol and the “folding stability dG unfold” value [3] was 1.23 ± 0.088 kcal/mol.
In the case of “SSATVTFTVELPDDSVIVSVRIDAEEYDPGPPWVRVTIEVEIYDKNGELLATLRFEFLLPREVLEELRKSSA [r9_234_TrMRF]”, the “folding stability dG unfold” value [1] is reported as 5.77 ± 0.66 kcal/mol, the “folding stability dG unfold” value [2] is reported as 5.74 ± 0.3 kcal/mol and the “folding stability dG unfold” value [3] is reported as 4.23 ± 0.14 kcal/mol.
In the case of “SAGGSAGGSAGGKTYTADEIKKIKKINGKWYVEIDGKTYEIPAKDIKIKKGDKIKIYPVSAGGSAGGSAGGS [r10_665_TrROS_Hall]”, the “folding stability dG unfold” value [1] is reported as 1.57 ± 0.16 kcal/mol, the “folding stability dG unfold” value [2] is reported as 1.59 ± 0.091 kcal/mol and the “folding stability dG unfold” value [3] is reported as 1.45 ± 0.059 kcal/mol.
In the case of “SAGGSAGGSAGKIEIKVVKKTPNYVYYEIRFEETKKTIIVKAKSKEDAEEAAKKLLKELKSAGGSAGGSAGG [r11_848_TrROS_Hall]”, the “folding stability dG unfold” value [1] is reported as 2.62 ± 0.17 kcal/mol, the “folding stability dG unfold” value [2] is reported as 2.88 ± 0.062 kcal/mol and the “folding stability dG unfold” value [3] is reported as 2.31 ± 0.099 kcal/mol.
In the case of “SAGGSAGGSAGGKLILKVKVEVVSVKVEPLPGVPGEVKVEVEVKVEVELIEVSEEELKSSAGGSAGGSAGGS [r10_654_TrROS_Hall]”, the “folding stability dG unfold” value [1] is reported as 2.19 ± 0.18 kcal/mol, the “folding stability dG unfold” value [2] is reported as 2.34 ± 0.098 kcal/mol and the “folding stability dG unfold” value [3] is reported as 1.88 ± 0.26 kcal/mol.
For “SAGGSAGGSMVLNFEDTKPGVSPEEAAARVAAKIRAEHDVAVLGVEVETSPTGGYHITITVDPSAGGSAGGS [r12_781_JUSTAS]”, the “folding stability dG unfold” value [1] was 0.391 ± 0.062 kcal/mol, the “folding stability dG unfold” value [2] was 0.272 ± 0.08 kcal/mol and the “folding stability dG unfold” value [3] was 0.325 ± 0.059 kcal/mol.
In the case of “SAGGSAGGSAGGMRIRLENGEVIKIKNAKTKEELLNALKAIPGLKIEYDEETKELWIYRSAGGSAGGSAGGS [r10_792_TrROS_Hall]”, the “folding stability dG unfold” value [1] is reported as 2.22 ± 0.16 kcal/mol, the “folding stability dG unfold” value [2] is reported as 2.33 ± 0.097 kcal/mol and the “folding stability dG unfold” value [3] is reported as 1.88 ± 0.075 kcal/mol.
With “SAGGMTIVLPNGITLTFYPDRTVTATVDFPGRPLTLTLDAASLAEAVAAVERAAAEWAAPAPPVVDLSSAGG [r13_896_TrMRF]” the “folding stability dG unfold” value [1] was 2.72 ± 0.042 kcal/mol, the “folding stability dG unfold” value [2] was 2.824 ± 0.013 kcal/mol and the “folding stability dG unfold” value [3] was 2.56 ± 0.042 kcal/mol.
In the case of “SAGGSAGGSAGGSGSMSVSGGPSVIVVTLPGGEKVVLPLDELDELYKLPYVSATTVSLPSAGGSAGGSAGGS [r4_348_JUSTAS]”, the “folding stability dG unfold” value [1] is reported as 1.13 ± 0.14 kcal/mol, the “folding stability dG unfold” value [2] is reported as 0.24 ± 0.18 kcal/mol and the “folding stability dG unfold” value [3] is reported as 1.45 ± 0.065 kcal/mol.
For “SAGGLPELLKALGLPVTSVRSVPVLLPGGRPALVTFVEFEDPEGERYRLVVVRLPNGEVLVRVERLDPSAGG [r13_818_TrMRF]”, the “folding stability dG unfold” value [1] was 4.53 ± 0.1 kcal/mol, the “folding stability dG unfold” value [2] was 4.9 ± 0.12 kcal/mol and the “folding stability dG unfold” value [3] was 3.39 ± 0.15 kcal/mol.
In the case of “SAGGSAGGSAGMKVAVLTIPENGKPVLVVELPDGGALAFDPDTDAVFLLDDDKIYYLGPASAGGSAGGSAGG [r17_476_TrMRF]”, the “folding stability dG unfold” value [1] is reported as 1.13 ± 0.075 kcal/mol, the “folding stability dG unfold” value [2] is reported as 1.52 ± 0.059 kcal/mol and the “folding stability dG unfold” value [3] is reported as 0.0117 ± 0.033 kcal/mol.
